Measurements: article PMC8395731
pKd: −log10 of the molar value.

Target: 6xHis-tagged mTOR fragment ∆N-FAT-M (human) (UniProt P42345)
Experiment: BLI; BLItz; His-tagged mTOR fragments (1 µM) immobilised on Ni-NTA biosensors, tagless RHEB as analyte (0.5 and 1 µM, or 0.05 and 0.1 µM for ∆ATP), no GTP; 10 mM HEPES pH 7.4, 100 mM NaCl, 0.02% Tween-20, 5 mg/mL BSA, 25 °C; global 1:1 fit

pKd: 5.90
Substance: 6xHis-tag cleaved-RHEB (from UniProt Q15382 1-169) (natural protein)
